# Where a chain is given by its changes, count along the chain named. Numbers in names are those of the source. Like-named read-outs stand apart in the source and are kept apart here. Positions of bridges follow the written chain, without caps; N, C: chain ends. No end group written: not given here.
# B1: mRAP-8c (peptide)
# peptide: CGKHFEAKIEKHNHYQKQLEIAHEKLRHAESVGDGERVSRSREKHALLEGRTKELGYTVKKHLQDGC
# modifications: disulfide 1-67
# B2: wild-type RAP displayed on M13 phage (ligand)
# chain: YSREKNQPKPSPKRESGEEFRMEKLNQLWEKAQRLHLPPVRLAELHADLKIQERDELAWKKLKLDGLDEDGEKEARLIRNLNVILAKYGLDGKKDARQVTSNSLSGTQEDGLDDPRLEKLWHKAKTSGKFSGEELDKLWREFLHHKEKVHEYNVLLETLSRTEEIHENVISPSDLSDIKGSVLHSRHTELKEKLRSINQGLDRLRRVSHQGYSTEAEFEEPRVIDLWDLAQSANLTDKELEAFREELKHFEAKIEKHNHYQKQLEIAHEKLRHAESVGDGERVSRSREKHALLEGRTKELGYTVKKHLQDLSGRISRARAEAETG
# B3: MatRAP1 N-42 (ligand)
# chain: FREELKHFGAKIERHNHYQKQLEIAHEWLRHAESVGDGERVSRSREKHALLEGRTKELGYTVKKHLQDLSGRISRAR
# B4: MatRAP1 N-42 without the C-terminal linker and affinity tag (ligand)
# chain: B3 chain
# B5: Heptide (peptide)
# peptide: CGKHFEAKIEKHNHYQKQLEIAHEKLRHAESVGDAERVSRSREKHALLEGRTKELGYTVKKHLQDACG
# modifications: disulfide 1-67
# B6: tag-free RAP d3 peptide linked to maleimide-PEO2-biotin (ligand)
# chain: LDRLRRVSHQGYSTEAEFEEPRVIDLWDLAQSANLTDKELEAFREELKHFEAKIEKHNHYQKQLEIAHEKLRHAESVGDGERVSRSREKHALLEGRTKELGYTVKKHLQDLSGRISRARC
# modifications: maleimide-PEO2-biotin on the unique C-terminal cysteine
# B7: mRAP-14c (peptide)
# peptide: CEAKIEKHNHYQKQLEIAHEKLRHAESVGDGERVSRSREKHALLEGRTKELGYTVKKHGC
# modifications: disulfide 1-60
# B8: RAP d3 (ligand)
# chain: LDRLRRVSHQGYSTEAEFEEPRVIDLWDLAQSANLTDKELEAFREELKHFEAKIEKHNHYQKQLEIAHEKLRHAESVGDGERVSRSREKHALLEGRTKELGYTVKKHLQDLSGRISRAR
# B9: MegaRAP1 d3 double revertant K251E, E270K (ligand)
# chain: B8 chain with S13T, E17K, H49Y, K56A
# B10: MegaRAP1 d3 E270K (ligand)
# chain: B8 chain with S13T, E17K, H49Y, E51K, K56A
# B11: MegaRAP1 d3 (ligand)
# chain: B8 chain with S13T, E17K, H49Y, E51K, K56A, K70E
# B12: MegaRAP1 d3 double revertant A256K, E270K (ligand)
# chain: B8 chain with S13T, E17K, H49Y, E51K
# B13: RAP d3 E251K, K256A, K270E (ligand)
# chain: B8 chain with E51K, K56A, K70E
# B14: MatRAP1 truncated variant, amino acids 243-313 (ligand)
# chain: FREELKHFGAKIERHNHYQKQLEIAHEWLRHAESVGDGERVSRSREKHALLEGRTKELGYTVKKHLQDLSG
# B15: truncated 320RAP1, amino acids 243-313 (ligand)
# chain: B14 chain with G9E, R14S, W28S, L29M, D37Y, V41M, K63T, K64M
# B16: Human RAP (ligand)
# chain: YSREKNQPKPSPKRESGEEFRMEKLNQLWEKAQRLHLPPVRLAELHADLKIQERDELAWKKLKLDGLDEDGEKEARLIRNLNVILAKYGLDGKKDARQVTSNSLSGTQEDGLDDPRLEKLWHKAKTSGKFSGEELDKLWREFLHHKEKVHEYNVLLETLSRTEEIHENVISPSDLSDIKGSVLHSRHTELKEKLRSINQGLDRLRRVSHQGYSTEAEFEEPRVIDLWDLAQSANLTDKELEAFREELKHFEAKIEKHNHYQKQLEIAHEKLRHAESVGDGERVSRSREKHALLEGRTKELGYTVKKHLQDLSGRISRARHNEL
# Tests used:
# [1] = target: recombinant human LRP1 ligand binding cluster II (human); assay: solid-phase binding assay, immobilised receptor
# LRP1 CR3-5 (human) [2] = assay: phage panning of a RAP library randomised at 256 and 270 on immobilised LRP1 CR3-5
# MAT CR23 (human) [3] = assay: solid-phase binding assay (FIG. 9); target not given, MatRAP1 was selected on MAT CR23
# Chain of MAT CR23 (human) (Q9Y5Y6 whole entry): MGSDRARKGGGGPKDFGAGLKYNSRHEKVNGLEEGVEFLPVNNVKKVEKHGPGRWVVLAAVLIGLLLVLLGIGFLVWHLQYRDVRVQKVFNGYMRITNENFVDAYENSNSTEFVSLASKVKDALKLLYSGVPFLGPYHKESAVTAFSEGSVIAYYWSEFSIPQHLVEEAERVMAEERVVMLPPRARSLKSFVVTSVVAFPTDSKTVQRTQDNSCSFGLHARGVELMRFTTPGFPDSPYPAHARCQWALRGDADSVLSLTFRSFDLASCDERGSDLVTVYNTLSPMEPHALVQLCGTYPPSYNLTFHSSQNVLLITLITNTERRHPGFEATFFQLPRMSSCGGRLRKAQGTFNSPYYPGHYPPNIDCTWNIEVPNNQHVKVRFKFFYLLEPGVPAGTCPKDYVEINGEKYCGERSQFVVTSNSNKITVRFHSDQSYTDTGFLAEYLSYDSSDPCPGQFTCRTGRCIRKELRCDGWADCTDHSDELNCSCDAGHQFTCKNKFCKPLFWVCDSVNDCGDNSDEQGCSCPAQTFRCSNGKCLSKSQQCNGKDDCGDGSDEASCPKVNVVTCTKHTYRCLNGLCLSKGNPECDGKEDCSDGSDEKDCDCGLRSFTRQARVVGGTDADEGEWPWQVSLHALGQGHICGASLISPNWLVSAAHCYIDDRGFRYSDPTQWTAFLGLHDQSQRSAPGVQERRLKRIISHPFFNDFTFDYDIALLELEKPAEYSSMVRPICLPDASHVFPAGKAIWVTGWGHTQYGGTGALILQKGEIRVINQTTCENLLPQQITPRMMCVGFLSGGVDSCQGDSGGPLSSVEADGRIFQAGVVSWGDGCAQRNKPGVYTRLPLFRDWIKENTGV
# [4] = target: recombinant human LRP1 ligand binding cluster II (human); assay: solid-phase binding assay, immobilised receptor, streptavidin-HRP detection, EDTA-corrected
# LRP1 CR3-5 (human) [5] = assay: solid-phase binding assay, immobilised CR protein, anti-RAP detection
# LRP2 CR34-36 (human) = LRP2 CR34-36 (human) (UniProt P98164); assay: as above
# LRP2 CR3536 (human) = LRP2 CR3536 (human) (UniProt P98164); assay: as above
# LRP2 CR89 (human) [6] = target: LRP2 CR89 (human) (UniProt P98164); assay: as above
# MAT CR23 (human) [7] = assay: as above
# LRP1 CR3-5 (human) [8] = assay: as above; remark: listed apart in the source
# LRP2 CR89 (human) [9] = target: LRP2 CR89 (human) (UniProt P98164); assay: as above; remark: listed apart in the source
# LRP2 CR89 R1088D (human) = LRP2 CR89 R1088D (human) (UniProt P98164); assay: solid-phase binding assay, immobilised mutant CR protein
# 8D6 CR12 (human) = assay: solid-phase binding assay (FIG. 10)
# [10] = target: recombinant human LRP1 ligand binding cluster II (human); assay: competition ELISA on immobilised LRP1 cluster II; competitor ligand RAP d3 (2 nM)
# [11] = target: recombinant human LRP1 ligand binding cluster II (human); assay: competition ELISA, inhibitor pre-incubated with immobilised LRP1 cluster II before washing; competitor ligand RAP d3
binder,measurement,setting,value
B1,Kd,[1],4 to 6 nM
B2,fold enrichment after one round of panning,LRP1 CR3-5 (human) [2],7 fold
B3,fold increase in affinity over the full-length d3 variant,MAT CR23 (human) [3],3 fold
B4,fold increase in binding affinity over MatRAP1 N-42,MAT CR23 (human) [3],2 fold
same,fold increase in binding affinity over full-length MatRAP1 d3,MAT CR23 (human) [3],6 fold
B5,Kd,[1],3.5 nM
B6,Kd,[4],8 nM
B7,Kd,[1],21 nM
B8,Kd,LRP1 CR3-5 (human) [5],11 nM
same,binding as percent of that for LRP1 CR3-5,LRP2 CR34-36 (human),< 5%
same,binding as percent of that for LRP1 CR3-5,LRP2 CR3536 (human),< 5%
same,Kd,LRP2 CR89 (human) [6],> 300 nM
same,binding as percent of that for LRP1 CR3-5,MAT CR23 (human) [7],< 5%
same,Kd,LRP1 CR3-5 (human) [8],16 nM
B9,fold difference in affinity against the single-site E270K revertant,LRP2 CR89 (human) [9],20 fold
B10,Kd,LRP1 CR3-5 (human) [8],142 nM
same,Kd,LRP2 CR89 (human) [9],8 nM
B11,fold loss of affinity relative to LRP2 CR89,LRP2 CR89 R1088D (human),2 fold
same,Kd,LRP2 CR89 (human) [9],38 nM
B12,fold improvement in affinity against the E270K single-site revertant,LRP1 CR3-5 (human) [8],30 fold
same,fold loss of affinity against the E270K single-site revertant,LRP2 CR89 (human) [9],2 fold
B13,Kd,LRP2 CR89 (human) [6],114 nM
B14,fold increase in binding affinity over MatRAP1 N-42,MAT CR23 (human) [3],4 fold
same,fold increase in binding affinity over full-length MatRAP1 d3,MAT CR23 (human) [3],12 fold
B15,fold improvement in affinity over the full-length variant,8D6 CR12 (human),3.5 fold
B16,EC50,[10],0.5 nM
same,fold better EC50 than monomeric mRAPc peptide,[10],64 fold
same,EC50,[11],0.3 nM

# — patent US8440629B2
